pIC50: −log10 of the molar value.

Results on one substance are retold here after patent US20200157212A1.

The target in the test is Terbium (Tb) labeled-SNAP tagged ROBO2 expressed on HEK293 cells (Homo sapiens (Human)) (UniProt Q9HCK4). The test is described as follows: HTRF competition, competitor d2-SLIT2-N, ROBO2 HEK293 cells. A general note: TR-FRET usually uses a lanthanide donor and a delayed reading to cut background.
Sequence of Terbium (Tb) labeled-SNAP tagged ROBO2 expressed on HEK293 cells (Homo sapiens (Human)) (Q9HCK4 22-1378): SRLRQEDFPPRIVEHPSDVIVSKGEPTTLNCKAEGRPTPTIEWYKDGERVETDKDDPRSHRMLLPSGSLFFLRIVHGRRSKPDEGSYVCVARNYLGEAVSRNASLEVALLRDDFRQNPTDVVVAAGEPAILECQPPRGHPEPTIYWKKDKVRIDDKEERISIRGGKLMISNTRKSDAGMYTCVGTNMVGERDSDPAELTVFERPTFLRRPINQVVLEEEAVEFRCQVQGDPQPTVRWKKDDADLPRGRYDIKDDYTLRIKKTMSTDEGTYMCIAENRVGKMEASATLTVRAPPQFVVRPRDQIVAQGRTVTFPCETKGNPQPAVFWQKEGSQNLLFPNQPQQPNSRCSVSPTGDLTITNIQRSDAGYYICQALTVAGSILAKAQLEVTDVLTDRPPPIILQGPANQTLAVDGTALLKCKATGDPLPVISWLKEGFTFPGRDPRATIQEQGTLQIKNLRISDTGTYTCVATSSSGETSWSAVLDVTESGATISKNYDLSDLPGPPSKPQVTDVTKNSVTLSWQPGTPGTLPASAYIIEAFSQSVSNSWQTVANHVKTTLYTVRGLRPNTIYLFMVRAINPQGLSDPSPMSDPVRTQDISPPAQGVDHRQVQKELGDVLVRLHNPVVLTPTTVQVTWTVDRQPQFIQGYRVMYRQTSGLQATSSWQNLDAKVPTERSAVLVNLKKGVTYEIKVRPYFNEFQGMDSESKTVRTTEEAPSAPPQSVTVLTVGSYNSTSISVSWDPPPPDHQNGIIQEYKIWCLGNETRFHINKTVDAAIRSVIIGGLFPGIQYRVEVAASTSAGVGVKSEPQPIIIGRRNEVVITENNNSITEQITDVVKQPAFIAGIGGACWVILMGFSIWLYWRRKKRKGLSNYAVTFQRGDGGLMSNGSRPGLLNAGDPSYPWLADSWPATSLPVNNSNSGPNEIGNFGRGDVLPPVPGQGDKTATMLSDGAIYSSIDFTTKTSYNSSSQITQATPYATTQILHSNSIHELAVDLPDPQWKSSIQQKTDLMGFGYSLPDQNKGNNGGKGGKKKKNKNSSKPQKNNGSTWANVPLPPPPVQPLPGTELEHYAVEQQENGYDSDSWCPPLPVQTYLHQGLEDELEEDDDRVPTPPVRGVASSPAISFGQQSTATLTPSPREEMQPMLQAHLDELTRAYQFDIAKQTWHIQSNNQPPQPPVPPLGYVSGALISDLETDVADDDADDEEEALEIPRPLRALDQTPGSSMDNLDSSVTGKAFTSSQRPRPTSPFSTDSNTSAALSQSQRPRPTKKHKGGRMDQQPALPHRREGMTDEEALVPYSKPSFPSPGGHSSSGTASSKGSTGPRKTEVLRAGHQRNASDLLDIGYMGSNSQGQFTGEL

Usually pIC50 stands for the negative decadic logarithm of the IC50, by convention in mol/L. High values mean a low IC50, low ones a high IC50. With Control Ab (antibody), the pIC50 was 6.90.
